We go through one molecule from patent US20130224313A1 (CENTRO DE INGENIERIA GENETICA Y BIOTECNOLOGIA, published 2013).

Assay [1] concerns the target T1, COMMD1 fragment, amino acids 110-190 (clone pGBKL2 (110-190)) (human, UniProt Q8N668 110-190).
T1 construct: range 110-190; also called COMM domain; not shown: two-hybrid vector fusion partner; not described
The assay is described as follows: yeast two-hybrid with deletion clones. As for the experimental part:
(§1) FIG. 1. The figure illustrates the physical interaction between the L2 peptide and COMMD1. This was carried out by the technique of two hybrids in yeast. As negative controls were used the mating of the yeast strain AH109 transformed with the empty vector (pGBKT7) and the fragments of COMMD1 transformed with the Y187 strain. For the identification of the interaction, mating of the strain AH109 transformed with vector carrying the sequence of L2 and each COMMD1 fragment transformed into strain Y187 was carried out. As a positive control, the PCL1 mating bearing the GAL4 transcription factor was used. As it can be noted, the interaction occurs with the plasmids carrying the complete sequence of the COMMD1 gene and the construction containing the amino acids 110-190 of the COMMD1 protein.
(§2) corresponding to the L2 peptide sequence: […] For cloning these sequences in the pGBKT7 NcoI-BamHI vector, sequences complementary to these sites were added at the ends of the oligonucleotides. The pGBKL2-1 recombinant plasmid, which carries the L2 peptide sequence was verified by restriction analysis and sequencing. The plasmid was transformed into the AH109 yeast strain by the lithium acetate method and grown in SD-Trp medium. It was verified that it could not be self-activated when grown on SD-Trp-His plates. […]

Assay [2] concerns the target T2, COMMD1 protein, amino acids 6-190 (two-hybrid clone L2-21) (human, UniProt Q8N668 6-190).
T2 construct: range 6-190; Prey clone found in the two-hybrid screen; also called MURR1; not shown: fusion partner of the human liver cDNA library (prey) vector in strain Y187; not described
The assay is described as follows: yeast two-hybrid screen of a human liver cDNA library, verified by mating. As for the experimental part: as §1, §2

T1 sequence (Q8N668 110-190): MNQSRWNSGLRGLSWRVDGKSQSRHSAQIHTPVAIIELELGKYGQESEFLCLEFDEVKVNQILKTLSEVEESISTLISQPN
T2 sequence (Q8N668 6-190): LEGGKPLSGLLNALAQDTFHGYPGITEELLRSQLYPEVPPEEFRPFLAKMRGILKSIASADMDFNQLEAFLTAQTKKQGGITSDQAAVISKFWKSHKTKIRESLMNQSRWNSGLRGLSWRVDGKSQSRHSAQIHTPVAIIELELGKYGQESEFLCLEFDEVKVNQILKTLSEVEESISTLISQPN

B1: L2 peptide expressed from plasmid pGBKL2-1 (pGBKT7 vector) in yeast strain AH109 (peptide)
chain: HARIKPTFRRLKWKYKGKFW
notes: Two-hybrid bait; not shown: fusion partner encoded by the pGBKT7 two-hybrid bait vector
For the molecule B1, the binding result in assay [1] and in assay [2] was “binds” each time.
